Results taken from patent publication US20180360932A1 (OPKO BIOLOGICS, published 2018).

Columns and labels:
Factor X (FX) = Factor X (FX) (UniProt P00742); experiment: cell-based or functional assay
[1] = target: MOD-5014 (FVIIa-CTP3, activated Factor VII-CTP-CTP-CTP) (human) (UniProt P08709); experiment: cell-based or functional assay
[2] = target: NovoSeven (commercial recombinant human FVIIa) (human) (UniProt P08709); experiment: cell-based or functional assay
[3] = target: T1, Tissue factor (TF), P13726
T1 chain: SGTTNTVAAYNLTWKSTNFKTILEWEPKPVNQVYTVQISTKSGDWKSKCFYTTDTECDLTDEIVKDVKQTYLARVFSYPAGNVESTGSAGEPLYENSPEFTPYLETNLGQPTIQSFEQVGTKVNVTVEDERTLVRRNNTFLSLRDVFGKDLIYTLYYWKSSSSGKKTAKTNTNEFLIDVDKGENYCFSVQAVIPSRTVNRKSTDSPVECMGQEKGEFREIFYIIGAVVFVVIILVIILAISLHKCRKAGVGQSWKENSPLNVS

Sequence of Factor X (FX), P00742 (P00742 whole entry, looked up): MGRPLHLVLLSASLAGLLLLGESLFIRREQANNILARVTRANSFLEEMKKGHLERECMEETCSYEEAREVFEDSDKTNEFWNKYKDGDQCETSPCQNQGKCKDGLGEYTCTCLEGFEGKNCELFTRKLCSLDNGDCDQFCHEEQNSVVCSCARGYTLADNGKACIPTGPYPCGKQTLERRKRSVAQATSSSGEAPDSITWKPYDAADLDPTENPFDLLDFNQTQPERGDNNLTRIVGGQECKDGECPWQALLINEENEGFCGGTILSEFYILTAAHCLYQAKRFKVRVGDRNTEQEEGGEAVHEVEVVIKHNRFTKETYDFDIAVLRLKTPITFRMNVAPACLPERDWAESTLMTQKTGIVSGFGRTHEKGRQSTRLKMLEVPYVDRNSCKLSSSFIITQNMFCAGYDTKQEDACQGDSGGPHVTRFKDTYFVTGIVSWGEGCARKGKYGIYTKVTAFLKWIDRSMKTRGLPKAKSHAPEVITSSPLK
Sequence of Factor X (FX) (P00742 41-488 limits assumed): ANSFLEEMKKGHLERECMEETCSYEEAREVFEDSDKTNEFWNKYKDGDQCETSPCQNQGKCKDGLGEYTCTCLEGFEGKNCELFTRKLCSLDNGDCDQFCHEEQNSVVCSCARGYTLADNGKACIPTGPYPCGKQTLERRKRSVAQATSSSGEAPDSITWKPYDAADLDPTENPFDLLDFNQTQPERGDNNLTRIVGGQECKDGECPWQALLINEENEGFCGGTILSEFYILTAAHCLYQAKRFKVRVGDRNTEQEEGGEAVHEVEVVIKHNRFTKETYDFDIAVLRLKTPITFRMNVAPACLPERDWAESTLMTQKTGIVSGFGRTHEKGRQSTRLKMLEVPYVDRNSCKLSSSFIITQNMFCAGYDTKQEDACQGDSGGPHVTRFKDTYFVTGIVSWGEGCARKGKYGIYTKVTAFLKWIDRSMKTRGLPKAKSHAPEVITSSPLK

Recombinant human FVIIa (NovoSeven) (from UniProt P08709 61-212; P08709 213-466) (enzyme)
EC50 of Factor X activation (BIOPHEN FVII chromogenic assay) (Factor X (FX)): 0.38 ng/mL

Tissue Factor Pathway Inhibitor (TFPI) (from UniProt P10646 29-304)
% Inhibition of clotting activity, TFPI 0.625 ng/mL [1]: 15% | % Inhibition of clotting activity, TFPI 6.25 ng/mL [1]: 15% | % Inhibition of clotting activity, TFPI 62.5 ng/mL [1]: 29% | % Inhibition of clotting activity, TFPI 625 ng/mL [1]: 80% | % Inhibition of clotting activity, TFPI 1250 ng/mL [1]: 89% | Activity (mU/mL), clotting assay, TFPI 0 ng/mL (no inhibitor) [1]: 66.8 mU/mL | Activity (mU/mL), clotting assay, TFPI 0.625 ng/mL [1]: 56.7 mU/mL | Activity (mU/mL), clotting assay, TFPI 6.25 ng/mL [1]: 56.7 mU/mL | Activity (mU/mL), clotting assay, TFPI 62.5 ng/mL [1]: 47.4 mU/mL | Activity (mU/mL), clotting assay, TFPI 625 ng/mL [1]: 13.2 mU/mL | Activity (mU/mL), clotting assay, TFPI 1250 ng/mL [1]: 7.3 mU/mL | FX activation by MOD-5014 (0.7 ng/ml) + 1 U/µl heparin, TFPI 0.002048 ng/ml [1]: 1.27 | FX activation by MOD-5014 (0.7 ng/ml) + 1 U/µl heparin, TFPI 0.010240 ng/ml [1]: 1.29 | FX activation by MOD-5014 (0.7 ng/ml) + 1 U/µl heparin, TFPI 0.051200 ng/ml [1]: 1.35 | FX activation by MOD-5014 (0.7 ng/ml) + 1 U/µl heparin, TFPI 1.28 ng/ml [1]: 1.26 | FX activation by MOD-5014 (0.7 ng/ml) + 1 U/µl heparin, TFPI 6.40 ng/ml [1]: 1.16 | FX activation by MOD-5014 (0.7 ng/ml) + 1 U/µl heparin, TFPI 32.00 ng/ml [1]: 0.915 | FX activation by MOD-5014 (0.7 ng/ml) + 1 U/µl heparin, TFPI 160.00 ng/ml [1]: 0.539 | FX activation by MOD-5014 (0.7 ng/ml) + 1 U/µl heparin, TFPI 800.00 ng/ml [1]: 0.32 | FX activation by MOD-5014 (0.7 ng/ml) + 1 U/µl heparin, TFPI 4000.00 ng/ml [1]: 0.115 | FX activation by MOD-5014 (0.7 ng/ml) + 1 U/µl heparin, TFPI 20000.00 ng/ml [1]: 0.15 | FX activation by MOD-5014 (0.7 ng/ml), Control [1]: 1.37 | FX activation by MOD-5014 (4 ng/ml), Control (no TFPI) [1]: 1.58 | FX activation by MOD-5014 (4 ng/ml), TFPI 0.002048 ng/ml [1]: 1.65 | FX activation by MOD-5014 (4 ng/ml), TFPI 0.010240 ng/ml [1]: 1.64 | FX activation by MOD-5014 (4 ng/ml), TFPI 0.051200 ng/ml [1]: 1.6 | FX activation by MOD-5014 (4 ng/ml), TFPI 0.2560 ng/ml [1]: 1.62 | FX activation by MOD-5014 (4 ng/ml), TFPI 1.28 ng/ml [1]: 1.56 | FX activation by MOD-5014 (4 ng/ml), TFPI 6.40 ng/ml [1]: 1.54 | FX activation by MOD-5014 (4 ng/ml), TFPI 32.00 ng/ml [1]: 1.47 | FX activation by MOD-5014 (4 ng/ml), TFPI 160.00 ng/ml [1]: 1.14 | FX activation by MOD-5014 (4 ng/ml), TFPI 800.00 ng/ml [1]: 0.836 | FX activation by MOD-5014 (4 ng/ml), TFPI 4000.00 ng/ml [1]: 0.38 | FX activation by MOD-5014 (4 ng/ml), TFPI 20000.00 ng/ml [1]: 0.17 | O.D, FX activation by MOD-5014 (0.69 ng/ml), Control (no TFPI) [1]: 1.51 O.D | O.D, FX activation by MOD-5014 (0.69 ng/ml), TFPI 0.002048 ng/ml [1]: 1.48 O.D | O.D, FX activation by MOD-5014 (0.69 ng/ml), TFPI 0.010240 ng/ml [1]: 1.45 O.D | O.D, FX activation by MOD-5014 (0.69 ng/ml), TFPI 0.051200 ng/ml [1]: 1.45 O.D | O.D, FX activation by MOD-5014 (0.69 ng/ml), TFPI 0.2560 ng/ml [1]: 1.46 O.D | O.D, FX activation by MOD-5014 (0.69 ng/ml), TFPI 1.28 ng/ml [1]: 1.39 O.D | O.D, FX activation by MOD-5014 (0.69 ng/ml), TFPI 6.40 ng/ml [1]: 1.38 O.D | O.D, FX activation by MOD-5014 (0.69 ng/ml), TFPI 32.00 ng/ml [1]: 1.36 O.D | O.D, FX activation by MOD-5014 (0.69 ng/ml), TFPI 160.00 ng/ml [1]: 1.11 O.D | O.D, FX activation by MOD-5014 (0.69 ng/ml), TFPI 800.00 ng/ml [1]: 1.01 O.D | O.D, FX activation by MOD-5014 (0.69 ng/ml), TFPI 4000.00 ng/ml [1]: 0.691 O.D | O.D, FX activation by MOD-5014 (0.69 ng/ml), TFPI 20000.00 ng/ml [1]: 0.346 O.D | % Inhibition of clotting activity, TFPI 0.625 ng/mL [2]: 25% | % Inhibition of clotting activity, TFPI 6.25 ng/mL [2]: 24% | % Inhibition of clotting activity, TFPI 62.5 ng/mL [2]: 38% | % Inhibition of clotting activity, TFPI 625 ng/mL [2]: 87% | % Inhibition of clotting activity, TFPI 1250 ng/mL [2]: 96% | Activity (mU/mL), clotting assay, TFPI 0 ng/mL (no inhibitor) [2]: 72.3 mU/mL | Activity (mU/mL), clotting assay, TFPI 0.625 ng/mL [2]: 54.5 mU/mL | Activity (mU/mL), clotting assay, TFPI 6.25 ng/mL [2]: 55.3 mU/mL | Activity (mU/mL), clotting assay, TFPI 62.5 ng/mL [2]: 45 mU/mL | Activity (mU/mL), clotting assay, TFPI 625 ng/mL [2]: 9.5 mU/mL | Activity (mU/mL), clotting assay, TFPI 1250 ng/mL [2]: 2.9 mU/mL | FX activation by NovoSeven (0.7 ng/ml) + 1 U/µl heparin, TFPI 0.002048 ng/ml [2]: 1.33 | FX activation by NovoSeven (0.7 ng/ml) + 1 U/µl heparin, TFPI 0.010240 ng/ml [2]: 1.3 | FX activation by NovoSeven (0.7 ng/ml) + 1 U/µl heparin, TFPI 0.051200 ng/ml [2]: 1.37 | FX activation by NovoSeven (0.7 ng/ml) + 1 U/µl heparin, TFPI 1.28 ng/ml [2]: 1.31 | FX activation by NovoSeven (0.7 ng/ml) + 1 U/µl heparin, TFPI 6.40 ng/ml [2]: 1.21 | FX activation by NovoSeven (0.7 ng/ml) + 1 U/µl heparin, TFPI 32.00 ng/ml [2]: 1.01 | FX activation by NovoSeven (0.7 ng/ml) + 1 U/µl heparin, TFPI 160.00 ng/ml [2]: 0.764 | FX activation by NovoSeven (0.7 ng/ml) + 1 U/µl heparin, TFPI 800.00 ng/ml [2]: 0.409 | FX activation by NovoSeven (0.7 ng/ml) + 1 U/µl heparin, TFPI 4000.00 ng/ml [2]: 0.241 | FX activation by NovoSeven (0.7 ng/ml) + 1 U/µl heparin, TFPI 20000.00 ng/ml [2]: 0.222 | FX activation by NovoSeven (0.7 ng/ml), Control [2]: 1.47 | FX activation by NovoSeven (4 ng/ml), Control (no TFPI) [2]: 1.66 | FX activation by NovoSeven (4 ng/ml), TFPI 0.002048 ng/ml [2]: 1.72 | FX activation by NovoSeven (4 ng/ml), TFPI 0.010240 ng/ml [2]: 1.7 | FX activation by NovoSeven (4 ng/ml), TFPI 0.051200 ng/ml [2]: 1.73 | FX activation by NovoSeven (4 ng/ml), TFPI 0.2560 ng/ml [2]: 1.7 | FX activation by NovoSeven (4 ng/ml), TFPI 1.28 ng/ml [2]: 1.66 | FX activation by NovoSeven (4 ng/ml), TFPI 6.40 ng/ml [2]: 1.59 | FX activation by NovoSeven (4 ng/ml), TFPI 32.00 ng/ml [2]: 1.5 | FX activation by NovoSeven (4 ng/ml), TFPI 160.00 ng/ml [2]: 1.34 | FX activation by NovoSeven (4 ng/ml), TFPI 800.00 ng/ml [2]: 1.02 | FX activation by NovoSeven (4 ng/ml), TFPI 4000.00 ng/ml [2]: 0.406 | FX activation by NovoSeven (4 ng/ml), TFPI 20000.00 ng/ml [2]: 0.206 | O.D, FX activation by NovoSeven (0.64 ng/ml), Control (no TFPI) [2]: 1.51 O.D | O.D, FX activation by NovoSeven (0.64 ng/ml), TFPI 0.002048 ng/ml [2]: 1.5 O.D | O.D, FX activation by NovoSeven (0.64 ng/ml), TFPI 0.010240 ng/ml [2]: 1.51 O.D | O.D, FX activation by NovoSeven (0.64 ng/ml), TFPI 0.051200 ng/ml [2]: 1.52 O.D | O.D, FX activation by NovoSeven (0.64 ng/ml), TFPI 0.2560 ng/ml [2]: 1.43 O.D | O.D, FX activation by NovoSeven (0.64 ng/ml), TFPI 1.28 ng/ml [2]: 1.47 O.D | O.D, FX activation by NovoSeven (0.64 ng/ml), TFPI 6.40 ng/ml [2]: 1.42 O.D | O.D, FX activation by NovoSeven (0.64 ng/ml), TFPI 32.00 ng/ml [2]: 1.38 O.D | O.D, FX activation by NovoSeven (0.64 ng/ml), TFPI 160.00 ng/ml [2]: 1.34 O.D | O.D, FX activation by NovoSeven (0.64 ng/ml), TFPI 800.00 ng/ml [2]: 1.04 O.D | O.D, FX activation by NovoSeven (0.64 ng/ml), TFPI 4000.00 ng/ml [2]: 0.83 O.D | O.D, FX activation by NovoSeven (0.64 ng/ml), TFPI 20000.00 ng/ml [2]: 0.429 O.D

B1: MOD-5014 (FVIIa-CTP3, activated Factor VII-CTP-CTP-CTP) (protein)
chain 1: ANAFLEELRPGSLERECKEEQCSFEEAREIFKDAERTKLFWISYSDGDQCASSPCQNGGSCKDQLQSYICFCLPAFEGRNCETHKDDQLICVNENGGCEQYCSDHTGTKRSCRCHEGYSLLADGVSCTPTVEYPCGKIPILEKRNASKPQGR
chain 2: IVGGKVCPKGECPWQVLLLVNGAQLCGGTLINTIWVVSAAHCFDKIKNWRNLIAVLGEHDLSEHDGDEQSRRVAQVIIPSTYVPGTTNHDIALLRLHQPVVLTDHVVPLCLPERTFSERTLAFVRFSLVSGWGQLLDRGATALELMVLNVPRLMTQDCLQQSRKVGDSPNITEYMFCAGYSDGSKDSCKGDSGGPHATHYRGTWYLTGIVSWGQGCATVGHFGVYTRVSQYIEWLQKLMRSEPRPGVLLRAPFPSSSSKAPPPSLPSPSRLPGPSDTPILPQSSSSKAPPPSLPSPSRLPGPSDTPILPQSSSSKAPPPSLPSPSRLPGPSDTPILPQ
Vmax (rate of FX activation at saturation of TF with FVIIa) [3]: 1.3 nM FXa/min | k2 (rate of Pefachrome FVIIa substrate cleavage by the VIIa/TF complex) (mol pNA/min/mol VIIa/TF) [3]: 357 | Vmax (rate of FX activation by lipid-bound FVIIa in the absence of TF) (Factor X (FX), P00742): 0.115 nM FXa/min

B2: MOD-5000 (NovoSeven, commercial recombinant hFVIIa) (protein)
chain 1: B1 chain 1
chain 2: IVGGKVCPKGECPWQVLLLVNGAQLCGGTLINTIWVVSAAHCFDKIKNWRNLIAVLGEHDLSEHDGDEQSRRVAQVIIPSTYVPGTTNHDIALLRLHQPVVLTDHVVPLCLPERTFSERTLAFVRFSLVSGWGQLLDRGATALELMVLNVPRLMTQDCLQQSRKVGDSPNITEYMFCAGYSDGSKDSCKGDSGGPHATHYRGTWYLTGIVSWGQGCATVGHFGVYTRVSQYIEWLQKLMRSEPRPGVLLRAPFP
Vmax (rate of FX activation by lipid-bound FVIIa in the absence of TF) (Factor X (FX), P00742): 0.253 nM FXa/min
